The text below walks through data of patent publication US12679888B2, “IL-18 binding protein (IL-18BP) and antibodies for treating inflammatory diseases” (AB2 BIO SA, priority 2015, dated 2026).

For one data set, the system named is C57BL/6J mice. The experiment in a line: Four-day exacerbation/tobacco smoke mouse model (COPD exacerbation). The format is in vivo. As to the method:
The aim of the study was to determine the effect of IL-18BP, administered at three dose levels, by the sub-cutaneous route, on Polyinosinic:polycytidylic acid-induced exacerbation of tobacco-smoke induced pulmonary inflammation, in C57BL/6J mice. High level of dexamethasone, dosed orally, was included in the study as a reference agent.
Mice received either vehicle (PBS) or IL-18BP. IL-18BP was given subcutaneously to 3 groups of animals respectively at 1, 3 or 10 mg/kg 2 h prior to the initial tobacco smoke exposure from Day 1 to Day 4. Mice received orally either vehicle or dexamethasone (10 mg/kg) 1 h prior to each twice daily exposure. Mice received by intranasal administration either the vehicle or Polyinosinic:polycytidylic acid (2 mg/kg) 2 h prior to the initial air or tobacco smoke exposure on Day 4 to induce lung inflammation exacerbation. Tobacco smoke exposure was performed during the morning and afternoon as follow: Day 1 for 15 min, Day 2 for 25 min, Day 3 for 30 min and Day 4 for 30 min.
Following the above treatments, animals were terminally anaesthetised on Day 5. After that, a blood sample was taken via the sub-clavian artery (plasma) and the animals were bronchoalveloar lavaged with 3×0.4 ml of PBS for further cellular and cytokine/mediator analysis. Bronchoalveolar lavage supernatants were stored at −80° C. for cytokine/mediator analysis. Cells recovered from the BALF were counted using the Sysmex cell counter.

In data set [1] the test system is collagen-induced arthritis murine model. The data set is described as follows: Collagen-induced arthritis murine model and dose extrapolation. The format is in vivo, mouse. As to the method:
(§1) No validated animal model has been described for this condition. In the collagen-induced arthritis murine model the active dose for r-hIL-18BP administered intraperitoneally (i.p.) was determined to be 1 mg/Kg body weight. […] Altogether the expected pharmacologically active dose for a “humanized mice” treated by s.c. route with r-hIL-18BP is round 4.85 mg/kg. […] Although the guidance was initially written for extrapolating animal doses to healthy volunteers, its principles can be applied also to patients. […] Those doses will be likely also ineffective in AoSD patients considering that blood levels of IL-18 in AoSD are higher than those reported in the two above mentioned conditions.

For data set [2] the following is noted: in vivo.
Data set [3] addresses T1, IL-18 (Homo sapiens, UniProt Q14116).
T1 sequence (Q14116 37-193): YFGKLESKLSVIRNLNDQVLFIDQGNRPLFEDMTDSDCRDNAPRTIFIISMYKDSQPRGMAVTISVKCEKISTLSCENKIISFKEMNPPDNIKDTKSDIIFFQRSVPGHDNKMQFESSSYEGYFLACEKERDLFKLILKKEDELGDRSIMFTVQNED
The experiment in a line: Titration of free IL-18 as a function of IL-18BP level (free IL-18 ELISA). Details: purchased. The format is binding. The conditions noted are these: 400 pg/mL IL-18 in PBS, 5% BSA. The method, then: Microplate wells are coated with an appropriate volume phosphate buffer saline solution containing recombinant human IL-18BP (r-hIL-18BP) as shown in SEQ ID NO 7, and less than 30% of N-terminal and/or C-terminal deletion variants of IL-18BP. A description of the r-hIL-18BP is provided in section 6.6.1 below. A description of the purification protocol is provided in section 6.6.2. Plates are incubated for a period of time at 4° C. and then stabilized with a blocking buffer containing bovine serum albumin or other appropriate blocking agents. Once the reaction is finished, microplates are sealed and stored at 4° C. until used for detection of free IL-18. […]
As an example, for a final reaction volume of 100 μl, dispense first 80 μl of biotin/antibody conjugate. […] The resulting reactions are then monitored with a microplate reader at an appropriate nanometer wavelength for absorbance or fluorescence of the produced reagent.
A constant quantity of recombinant IL-18 was titrated as a function of different and well-defined quantities of IL-18BP in order to understand when free IL-18 is not any more detectable. A PBS solution of 400 pg/mL IL-18 supplemented by 5% BSA was spiked with defined quantities of IL-18BP ranging from 0 to 10′000 pg/mL. The molar ratios were calculated according to the respective molecular weight of IL-18 and IL-18BP. […]

For data set [4], the target named is T1, IL-18. The data set is described as follows: Dissociation constant (Kd) used for dose selection, human. Type of data set: binding. As to the method: as §1
The nature of data set [5]: Bioavailability of r-hIL-18BP by i.p. and s.c. route. The format is in vivo, mouse. The method, then: as §1
The mark [6] stands for this setting: 3 and 10 mg/kg s.c., compared to positive control dexamethasone.

B1: IL-18BP: soluble glycoprotein of 164 amino acids produced from a Chinese Hamster Ovary cell line; isoform a, SEQ ID NO 7 (protein, listed as Homo sapiens)
chain: TPVSQTTTAATASVRSTKDPCPSQPPVFPAAKQCPALEVTWPEVEVPLNGTLSLSCVACSRFPNFSILYWLGNGSFIEHLPGRLWEGSTSRERGSTGTQLCKALVLEQLTPALHSTNFSCVLVDPEQVVQRHVVLAQLWAGLRATLPPTQEALPSSHSSPQQQG
modifications: CHO glycosylation; MISC_FEATURE - Human interleukin-18 binding protein isoform a
On to B1, for which the “exacerbated inflammation inhibition (total cell infiltration)” value with C57BL/6J mice (10 mg/kg s.c.) was “clear and statistically relevant efficacy”. The “neutrophil infiltration in the lung airway space” value in the data set with C57BL/6J mice (10 mg/kg s.c.) is “best statistical efficacy”; in the data set with C57BL/6J mice (setting [6]), “statistically valuable efficacy”; in the data set on C57BL/6J mice (IL-18BP s.c., day 5) it was “inhibited”. In addition, the “total cell infiltration in the lung airway space” value in the data set with C57BL/6J mice (setting [6]) was “statistically valuable efficacy”; with C57BL/6J mice (IL-18BP s.c., day 5), “significant mitigation of total cell infiltration”. Moreover, the weight loss in the data set with C57BL/6J mice (3 and 10 mg/kg s.c., large majority of mice) was 6-7%. The tolerability entry in the data set with C57BL/6J mice (IL-18BP s.c.) is given as “well tolerated”. The weight loss mitigation entry in the data set with C57BL/6J mice (IL-18BP s.c., Students t-test and ANOVA) was “mitigated by IL-18BP even though both Students t-test and ANOVA statistical analyses were not significant”. In addition, the “effective s.c. dose in mice” value in data set [1] (adjusted for s.c. bioavailability) is recorded as 1.82 mg/kg. Besides, the active dose in data set [1] (administered intraperitoneally (i.p.)) is recorded as 1 mg/Kg body weight. Also, the human equivalent dose in data set [1] (allometric murine conversion factor of 12.3) was 0.39 mg/kg; in data set [1] (for a 70 Kg individual), 27.3 mg. Further, in data set [1] (s.c. route, corrected for Kd difference), the “expected pharmacologically active dose for a humanized mice” value is roughly 4.85 mg/kg. Further, the median half-life in data set [2] is roughly 40 h. The “IL-18BP concentration at which 400 pg/mL IL-18 detection is near background detection level” value in the data set with IL-18 [3] is no less than 6000 pg/mL. Besides, binding in the data set with IL-18 [4] was put at a Kd of 0.16 nM. Besides, the bioavailability in data set [5] (i.p. route) was roughly 100%; in data set [5] (s.c. route), 55%.
